Measurements: article doi:10.1101/2023.01.30.526221

Key:
[1] = target: PfRIPR tail (Plasmodium falciparum) (UniProt O97302); assay: SPR
[2] = target: PfRIPR (Plasmodium falciparum) (UniProt O97302); assay: SPR
[3] = target: basigin ectodomain (human); assay: MST
[4] = target: full-length human basigin (human); assay: MST

With PfCSS-PfPTRAMP complex as the substance, how does the Kd [1] read?
The Kd was 3000 nM.

What about the Kd [2] of the same substance?
Its Kd is 3000 nM.

How did the Kd [3] turn out when PfRH5 (natural protein) was run?
The Kd was 190 nM.

And the Kd [4]?
The Kd was 120 nM.
